The results in this text go back to patent US20200308575A1 (TWIST BIOSCIENCE, published 2020).

B1: PD1-48 (antibody, V domains shown)
VH: EVQLVESGGGLVQPGRSLRLSCAASGFTFDDYALHWVRQAPGKDLEWVSGISWNSGSQGYADSVKGRFTISRDNAKNSLYLQMNSLRAEDTALYYCVREKGPGLTGSTADYYGLDAWGQGTMVTVSS
B2: PD1-50 (antibody, V domains shown)
VH: EVQLVESGGGLVQPGRSLRLSCAASGFTFDDYAFHWVRQAPGKDLEWVSGISWNAGSQGYADSVKGRFTISRDNAKNSLYLQMNSLRAEDTALYYCVREKGPGLTGSTADYYGLDAWGQGTMVTVSS
B3: PD1-49 (antibody, V domains shown)
VH: EVQLVESGGGLVQPGRSLRLSCAASGFTFDDYAFHWVRQAPGKDLEWVSGISWNSGSQGYADSVKGRFTISRDNAKNSLYLQMNSLRAEDTALYYCVREKGPGLTGSTADYYGLDAWGQGTMVTVSS
B4: PD1-24 (antibody, V domains shown)
VH: EVQLVESGGGLVQPGRSLRLSCAASGFTFDDYAMHWVRQAPGKDLEWVSGISWNSGSMGYAASVKGRFTISRDNAKNSLYLQMNSLRAEDTALYYCVREKGPGLTGSTADYYGLDAWGQGTMVTVSS
B5: PD1-21 (antibody, V domains shown)
VH: EVQLVESGGGLVQPGRSLRLSCAASGFTFDDYAMHWVRQAPGKDLEWVSGISWNGGSMGYAASVKGRFTISRDNAKNSLYLQMNSLRAEDTALYYCVREKGPGLTGSTADYYGLDVWGQGTMVTVSS
B6: PD1-20 (antibody, V domains shown)
VH: EVQLVESGGGLVQPGRSLRLSCAASGFTFDDYAMHWVRQAPGKDLEWVSGISWNGGSMGYADSVKGRFTISRDNAKNSLYLQMNSLRAEDTALYYCVREKGPGLTGSTADYYGLDVWGQGTMVTVSS
B7: PD1-44 (antibody, V domains shown)
VH: EVQLVESGGGLVQPGRSLRLSCAASGFTFDDYALHWVRQAPGKDLEWVSGISWNSGSYGYADSVKGRFTISRDNAKNSLYLQMNSLRAEDTALYYCVREKGPGLTGSTADYYGLDAWGQGTMVTVSS
B8: PD1-32 (antibody, V domains shown)
VH: EVQLVESGGGLVQPGRSLRLSCAASGFTFDDYAMHWVRQAPGKDLEWVSGISWNSGSMGYADSVKGRFTISRDNAKNSLYLQMNSLRAEDTALYYCVREKGPGLTGSTADYYGLDAWGQGTMVTVSS
B9: PD1-39 (antibody, V domains shown)
VH: EVQLVESGGGLVQPGRSLRLSCAASGFTFDDYALHWVRQAPGKDLEWVSGISWNGGSYGYADSVKGRFTISRDNAKNSLYLQMNSLRAEDTALYYCVREKGPGLTGSTADYYGLDAWGQGTMVTVSS
B10: PD1-38 (antibody, V domains shown)
VH: EVQLVESGGGLVQPGRSLRLSCAASGFTFDDYALHWVRQAPGKDLEWVSGISWNGGSMGYADSVKGRFTISRDNAKNSLYLQMNSLRAEDTALYYCVREKGPGLTGSTADYYGLDAWGQGTMVTVSS
B11: PD1-22 (antibody, V domains shown)
VH: EVQLVESGGGLVQPGRSLRLSCAASGFTFDDYAMHWVRQAPGKDLEWVSGISWNGGSMGYAASVKGRFTISRDNAKNSLYLQMNSLRAEDTALYYCVREKGPGLTGSTADYYGLDAWGQGTMVTVSS
B12: PD1-23 (antibody, V domains shown)
VH: QVQLVQSGAEVKKPGASVKVSCKASGYPFTSYGISWVRQAPGQGLEWMGWISAYNGNTNYAQKLQGRVTMTTDTSTSTAYMELRSLRSDDTAVYYCARDVDYSSGSGYWGQGTLVTVSS
VL: SYELMQPPSVSVSPGQTARITCSGDALPKQYAYWYQQKPGQAPVLVIYKDTERPSGIPERFSGSSSGTTVTLTISGVQAEDEADYYCQSADNSITYRVFGGGTKLTVL
notes: IgG in the assay
B13: PD1-11 (antibody, V domains shown)
VH: QVQLVQSGAEVKKPGASVKVSCKASGYTFSNYGFSWVRQAPGQGLEWMGWISPYSGNTKYAQKLQGRVTMTTDTSTSTAYMELRSLRSDDTAVYYCARDADYSIGSGYWGQGTLVTVSS
VL: SYELMQPPSVSVSPGQTARITCSGDALPRQYAHWYQQKPGQAPVLVIYKDNVRPSGIPERFSGSSSGTTVTLTISGVQAEDEADYYCQSADTSTIYRVFGGGTKLTVL
notes: IgG in the assay
B14: PD1-43 (antibody, V domains shown)
VH: QVQLVQSGAEVKKPGASVKVSCKASGYTFSNYGISWVRQAPGQGLEWMGWISAYSGNTKYAQKLQGRVTMTTDTSTSTAYMELRSLRSDDTAVYYCARDADYASGSGYWGQGTLVTVSS
VL: SYELMQPPSVSVSPGQTARITCSGDALPRQYAHWYQQKPGQAPVLVIYKDNERPSGIPERFSGSSSGTTVTLTISGVQAEDEADYYCQSADTSTIYRVFGGGTKLTVL
notes: IgG in the assay
B15: PD1-30 (antibody, V domains shown)
VH: QVQLVQSGAEVKKPGASVKVSCKASGYTFNNYGVSWVRQAPGQGLEWMGWVSAYSGNTNYAQKLQGRVTMTTDTSTSTAYMELRSLRSDDTAVYYCARDADYASGSGYWGQGTLVTVSS
VL: SYELMQPPSVSVSPGQTARITCSGDALSNQYTYWYQQKPGQAPVLVIYKDKKRPSGIPERFSGSSSGTTVTLTISGVQAEDEADYYCQSADNSITYRVFGGGTKLTVL
notes: IgG in the assay
B16: PD1-12 (antibody, V domains shown)
VH: QVQLVQSGAEVKKPGASVKVSCKASGYTFNTYGVSWVRQAPGQGLEWMGWISAYSGNTRYAQKLQGRVTMTTDTSTSTAYMELRSLRSDDTAVYYCARDFDYSSGSGYWGQGTLVTVSS
VL: SYELMQPPSVSVSPGQTARITCSGDALPKQYAYWYQQKPGQAPVLVIYKDTERPSGIPERFSGSSSGTTVTLTISGVQAEDEADYYCQSADNSITYRVFGGGTKLTVL
notes: IgG in the assay
B17: PD1-36 (antibody, V domains shown)
VH: QVQLVQSGAEVKKPGASVKVSCKASGYTFSSYGVSWVRQAPGQGLEWMGWISAYSGSTNYAQKLQGRVTMTTDTSTSTAYMELRSLRSDDTAVYYCARDAVYSSGSGYWGQGTLVTVSS
VL: SYELMQPPSVSVSPGQTARITCSGDALPNQYAHWYQQKPGQAPVLVIYKDTQRPSGIPERFSGSSSGTTVTLTISGVQAEDEADYYCQSADNSITYRVFGGGTKLTVL
notes: IgG in the assay
B18: PD1-10 (antibody, V domains shown)
VH: QVQLVQSGAEVKKPGASVKVSCKASGYRFTSYGISWVRQAPGQGLEWMGWISAYNGNTNYAQKLQGRVTMTTDTSTSTAYMELRSLRSDDTAVYYCARDADYASGSGYWGQGTLVTVSS
VL: SYELMQPPSVSVSPGQTARITCSGDALPKQYAYWYQQKPGQAPVLVIYKDTERPSGIPERFSGSSSGTTVTLTISGVQAEDEADYYCQSADNSITYRVFGGGTKLTVL
notes: IgG in the assay
B19: PD1-17 (antibody, V domains shown)
VH: QVQLVQSGAEVKKPGASVKVSCKASGYTFSKYGISWVRQAPGQGLEWMGWISAYSGHTDYAQKLQGRVTMTTDTSTSTAYMELRSLRSDDTAVYYCARDFDYSSGSGYWGQGTLVTVSS
VL: SYELMQPPSVSVSPGQTARITCSGDALPEQYAYWYQQKPGQAPVLVIYKDTERSSGIPERFSGSSSGTTVTLTISGVQAEDEADYYCQSADNSITYRVFGGGTKLTVL
notes: IgG in the assay
B20: PD1-42 (antibody, V domains shown)
VH: QVQLVQSGAEVKKPGASVKVSCKASGYTFNNFGISWVRQAPGQGLEWMGWISAYNGNTDYAQKLQGRVTMTTDTSTSTAYMELRSLRSDDTAVYYCARDMDYSSGSGYWGQGTLVTVSS
VL: SYELMQPPSVSVSPGQTARITCSGDALSNQYAYWYQQKPGQAPVLVIYKDTETPSGIPERFSGSSSGTTVTLTISGVQAEDEADYYCQSADNSITYRVFGGGTKLTVL
notes: IgG in the assay
B21: PD1-27 (antibody, V domains shown)
VH: QVQLVQSGAEVKKPGASVKVSCKASGYPFTNYGITWVRQAPGQGLEWMGWISAYNGNTNYAQKLQGRVTMTTDTSTSTAYMELRSLRSDDTAVYYCARDWDYSSGSGYWGQGTLVTVSS
VL: SYELMQPPSVSVSPGQTARITCSGDILPKQYAYWYQQKPGQAPVLVIYKDNERASGIPERFSGSSSGTTVTLTISGVQAEDEADYYCQSADNSITYRVFGGGTKLTVL
notes: IgG in the assay
B22: PD1-18 (antibody, V domains shown)
VH: QVQLVQSGAEVKKPGASVKVSCKASGYTFNNYGISWVRQAPGQGLEWMGWISAYSGHTDYAQKLQGRVTMTTDTSTSTAYMELRSLRSDDTAVYYCARDWDYSSGSGYWGQGTLVTVSS
VL: SYELMQPPSVSVSPGQTARITCSGDALSNQYGYWYQQKPGQAPVLVIYKDNERASGIPERFSGSSSGTTVTLTISGVQAEDEADYYCQSADNSITYRVFGGGTKLTVL
notes: IgG in the assay
B23: PD1-25 (antibody, V domains shown)
VH: QVQLVQSGAEVKKPGASVKVSCKASGYSFTRYGISWVRQAPGQGLEWMGWISPYSGNTKYAQKLQGRVTMTTDTSTSTAYMELRSLRSDDTAVYYCARDADYGSGSGYWGQGTLVTVSS
VL: SYELMQPPSVSVSPGQTARITCSGDALPDQYAYWYQQKPGQAPVLVIYKDYERPSGIPERFSGSSSGTTVTLTISGVQAEDEADYYCQSADNSITYRVFGGGTKLTVL
notes: IgG in the assay
B24: PD1-4 (antibody, V domains shown)
VH: QVQLVQSGAEVKKPGASVKVSCKASGYTFSTSGISWVRQAPGQGLEWMGWISAYNGNTNYAQKLQGRVTMTTDTSTSTAYMELRSLRSDDTAVYYCARDFDYSSGSGYWGQGTLVTVSS
VL: SYELMQPPSVSVSPGQTARITCSGDALPKQYAYWYQQKPGQAPVLVIYKDTERPSGIPERFSGSSSGTTVTLTISGVQAEDEADYYCQSADNSITYRVFGGGTKLTVL
notes: IgG in the assay
B25: PD1-14 (antibody, V domains shown)
VH: QVQLVQSGAEVKKPGASVKVSCKASGYPFTNYGISWVRQAPGQGLEWMGWTSAYSGNTNYAQKLQGRVTMTTDTSTSTAYMELRSLRSDDTAVYYCARDFDYSSGSGYWGQGTLVTVSS
VL: SYELMQPPSVSVSPGQTARITCSGDALPKQYAYWYQQKPGQAPVLVIYKDTERRSGIPERFSGSSSGTTVTLTISGVQAEDEADYYCQSADNSITYRVFGGGTKLTVL
notes: IgG in the assay

For this assay, the target named is program cell death protein 1 (PD-1) (UniProt Q15116 25-167, limits assumed). Put plainly: SPR (Carterra LSA), IgG, monovalent affinity.
Chain of program cell death protein 1 (PD-1) (Q15116 25-167 limits assumed): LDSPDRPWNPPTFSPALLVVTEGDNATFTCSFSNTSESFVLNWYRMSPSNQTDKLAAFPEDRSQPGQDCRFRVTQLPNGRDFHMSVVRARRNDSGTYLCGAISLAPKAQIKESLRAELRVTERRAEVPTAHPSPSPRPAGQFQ
The term Kd denotes the concentration at which binding is half-saturated. A lower Kd goes with tighter binding. As to B1, the affinity, expressed as Kd, was 64.3 nM.
For B2, the Kd was 87.5 nM.
Next, B3: 201 nM; B4: 190 nM; B5: 92 nM.
Next, B6: 109 nM; B7: 226 nM.
Next, B8: 92.2 nM; B9: 240 nM.
B10 came in with a dissociation constant (Kd) of 204 nM.
For B11, the affinity, expressed as Kd, was 132 nM.
Next, B12: 69.2 nM; B13: 48.1 nM.
Next, B14: 54.4 nM; B15: 68.8 nM; B16: 53.5 nM.
Next, B17: 84.9 nM; B18: 47.4 nM.
In the case of B19, the Kd was 60.1 nM.
Next, B20: 53.6 nM; B21: 88.6 nM.
Next, B22: 68.4 nM.
With B23, the Kd is 76 nM.
Next, B24: 31.4 nM; B25: 45.9 nM.
